Data on one molecule can be found in patent publication US20110059097A1 (UNIVERSITY HEALTH NETWORK, published 2011).

The target in this test is T1, murine MFAP4 (microfibrillar-associated protein-4) on mouse DNT cells (murine, UniProt Q9D1H9 23-257).
T1 sequence: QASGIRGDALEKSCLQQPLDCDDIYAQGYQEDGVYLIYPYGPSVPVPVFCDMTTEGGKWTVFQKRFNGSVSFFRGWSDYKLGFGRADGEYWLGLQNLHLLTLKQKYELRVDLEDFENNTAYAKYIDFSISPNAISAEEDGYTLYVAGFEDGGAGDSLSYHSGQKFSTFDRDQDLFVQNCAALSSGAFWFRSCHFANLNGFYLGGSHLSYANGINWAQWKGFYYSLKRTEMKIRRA
The test can be described thus: flow cytometry on mouse DNT cell clones (target later identified as MFAP4).

B1: G1 monoclonal antibody (antibody, V domains shown)
VH: EVKLVESGGGLVQPGRSLKLSCAASGFPFSNYGMAWVRQAPTKGLAWVATISYDGRSTYYRDSVKGRFTISRNNAKSTLYLQMDSLRSEDTATYYCVRHELPEDHWGQGVMVTVSS
VL: DIVMTQSPFSLAVSEGEMVTINCKSGQSLLSSGNQKNYLAWYQQKPGQSPKLLIYYSSTRQSGVPDRFIGSGSGTDFTLTISDVQAEDLADYYCLQHYSSPFTFGSGTKLEIK
notes: Hybridoma monoclonal antibody raised against cell surface molecules of tumor-reactive mouse DNT cells; also called G1 mAb; mAb (clone: G1)
As for B1, the binding result is listed as “binds”.
